{
  "source": "patent US12637662B2",
  "about": "“Cells, islets, and organoids that evade immune detection and autoimmunity, methods of production and use thereof” (SALK INSTITUTE FOR BIOLOGICAL STUDIES, priority 2018, dated 2026)",
  "system": "wHILO cells",
  "assay": "Immunohistochemistry and flow cytometry of cell composition",
  "assay_type": "cell-based, human",
  "description": "Secondary antibodies were coupled to Alexa 568, 647 (Life Technologies), and IHC staining was visualized by confocal microscopy (ZEISS) or fluorescence microscopy. Hoechst 33342 (Thermo Scientific, 62249, 1 μg/ml final concentration) was used for nuclear staining.\nClusters at indicated stages were dissociated with TrypLE (GIBCO) with 20 ug/ml DNase for 12 minutes at 37° C. and then were fixed with 4% PFA for 10 minutes at room temperature. Clusters were then permeabilized with 0.2% Triton X for 10 min, blocking with 10% goat serum for 30 min and stained for various intracellular markers with antibodies, c-peptide, (1/100, abcam, ab30477), PDX-1 (1/100, BD, 562161), NKX6-1 (1/100, BD, 563338), Chromogranin A (1/100, BD, 564583), MAFA (1/100, abcam, ab264583), MAFB (1/100, abcam, ab66506), Glucagon (1/100, abcam, ab82270), Somatostatin (1/100, abcam, 108456) for analysis on a BD Biosciences LSRII instrument. Data were analysed by FlowJo software. Secondary antibodies for c-peptide, Glucagon and Somatostatin were coupled to Alexa 647 (Life Technologies).",
  "data": [
    {"molecule": "WNT4: recombinant human Wnt4 protein (R&D Systems), non-canonical WNT maturation factor (protein, UniProt P56705 23-351, looked up) Protein Wnt-4: SNWLYLAKLSSVGSISEEETCEKLKGLIQRQVQMCKRNLEVMDSVRRGAQLAIEECQYQFRNRRWNCSTLDSLPVFGKVVTQGTREAAFVYAISSAGVAFAVTRACSSGELEKCGCDRTVHGVSPQGFQWSGCSDNIAYGVAFSQSFVDVRERSKGASSSRALMNLHNNEAGRKAILTHMRVECKCHGVSGSCEVKTCWRAVPPFRQVGHALKEKFDGATEVEPRRVGSSRALVPRNAQFKPHTDEDLVYLEPSPDFCEQDMRSGVLGTRGRTCNKTSKAIDGCELLCCGRGFHTAQVELAERCSCKFHWCCFVKCRQCQRLVELHTCR", "values": [
      {"measurement": "cellular composition of HILOs", "result": "not altered"}
    ]}
  ]
}
